B1: Azoarcus group I ribozyme (parent)
chain: GUGCCUUGCGCCGGGAAACCACGCAAGGGAUGGUGUCAAAUUCGGCGAAACCUAAGCGCCCGCCCGGGCGUAUGGCAACGCCGAGCCAAGCUUCGGCGCCUGCGCCGAUGAAGGUGUAGAGACUAGACGGCACCCACCUAAGGCAAACGCUAUGGUGAAGGCAUAGUCCAGGGAGUGGCGAAAGUCACACAAACCGG

In this data set the parent is B1. Put plainly: reverse-splicing fitness (ratio to wild type); higher = more active; in vitro selection; Mg2+ level not given. The procedure, abridged: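 An in vitro group I ribozyme library with randomized positions was T7-transcribed and gel-purified. In triplicate, 10 pmol RNA in EPPS pH 7.5 was reacted with 50 pmoles of a 30-nt RNA substrate for 1 h at 37 °C across several added MgCl2 levels (1–48 mM), then stopped with EDTA. Products were reverse transcribed from a substrate-complementary primer, PCR-amplified and sequenced (HiSeq 4000). Fitness is a variant's read proportion after selection over that before, normalised to wild type.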
GUGCCUUGCGCCGGGAAACCACGCAAGGGAUGGUGUCAAAUUCGGCGAAACCUAAGCGCCCGCCCGGGCGUAUGGCAACGCUGAGCCAAGCUUCGGCGCCUGCGCCGAUGUAGGUGUAGAGACUAGACGGCACCCACCUAAGGCCAACGCUAUGGUGAAGGCAUAGUCCAGGGAGUGGCGAAAGUCACACAAACCGG: the reverse-splicing fitness amounted to 0.295.
Then GUGCCUUGCGCCGGGAAACCACGCAAGGGAUGGUGUCAAAUUCGGCGAAACCUAAGCGCCCGCCCGGGCGUAUGGCAACGCAGAGCCAAGCUUCGGCGCCUGCGCCGAUGUAGGUGUAGGGACUAGACGGCACCCACCUAAGGCAAACGCUAUGGUGAAGGCAUAGUCGAGGGAGUGGCGAAAGUCACACAAACCGG, with 0.0106.
Then GUGCCUUGCGCCGGGAAACCACGCAAGGGAUGGUGUCAAAUUCGGCGAAACCUAAGCGCCCGCCCGGGCGUAUGGCAACGCGGAGCCAAGCUUCGGCGCCUGCGCCGAUGUAGGUGUAGGGACUAGACGGCACCCACCUAAGGCAAACGAUAUGGUGAAGGCAUAGUCCAGGGAGGGGCGAAAGUCACACAAACCGG, with 0.0103.
Then GUGCCUUGCGCCGGGAAACCACGCAAGGGAUGGUGUCAAAUUCGGCGAAACCUAAGCGCCCGCCCGGGCGUAUGGCAACGCUGAGCCAAGCUUCGGCGCCUGCGCCGAUGUAGGUGUAGGGACUAGACGGCACCCACCUAAGGCUAACGGUAUGGUGAAGGCAUAGUCAAGGGAGGGGCGAAAGUCACACAAACCGG, with 0.00439.
For GUGCCUUGCGCCGGGAAACCACGCAAGGGAUGGUGUCAAAUUCGGCGAAACCUAAGCGCCCGCCCGGGCGUAUGGCAACGCUGAGCCAAGCUUCGGCGCCUGCGCCGAUGGAGGUGUAGGGACUAGACGGCACCCACCUAAGGCGAACGCUAUGGUGAAGGCAUAGUCCAGGGAGAGGCGAAAGUCACACAAACCGG, the reverse-splicing fitness turned out to be 0.0123.
The same measure for GUGCCUUGCGCCGGGAAACCACGCAAGGGAUGGUGUCAAAUUCGGCGAAACCUAAGCGCCCGCCCGGGCGUAUGGCAACGCGGAGCCAAGCUUCGGCGCCUGCGCCGAUGAAGGUGUAGGGACUAGACGGCACCCACCUAAGGCAAACGCUAUGGUGAAGGCAUAGUCAAGGGAGAGGCGAAAGUCACACAAACCGG: 0.0209.
The same measure for GUGCCUUGCGCCGGGAAACCACGCAAGGGAUGGUGUCAAAUUCGGCGAAACCUAAGCGCCCGCCCGGGCGUAUGGCAACGCCGAGCCAAGCUUCGGCGCCUGCGCCGAUGGAGGUGUAGCGACUAGACGGCACCCACCUAAGGCCAACGUUAUGGUGAAGGCAUAGUCGAGGGAGAGGCGAAAGUCACACAAACCGG: 0.0186; for GUGCCUUGCGCCGGGAAACCACGCAAGGGAUGGUGUCAAAUUCGGCGAAACCUAAGCGCCCGCCCGGGCGUAUGGCAACGCAGAGCCAAGCUUCGGCGCCUGCGCCGAUGAAGGUGUAGCGACUAGACGGCACCCACCUAAGGCAAACGCUAUGGUGAAGGCAUAGUCGAGGGAGGGGCGAAAGUCACACAAACCGG: 0.00508; for GUGCCUUGCGCCGGGAAACCACGCAAGGGAUGGUGUCAAAUUCGGCGAAACCUAAGCGCCCGCCCGGGCGUAUGGCAACGCAGAGCCAAGCUUCGGCGCCUGCGCCGAUGAAGGUGUAGGGACUAGACGGCACCCACCUAAGGCCAACGUUAUGGUGAAGGCAUAGUCAAGGGAGUGGCGAAAGUCACACAAACCGG: 0.00915.
As to GUGCCUUGCGCCGGGAAACCACGCAAGGGAUGGUGUCAAAUUCGGCGAAACCUAAGCGCCCGCCCGGGCGUAUGGCAACGCAGAGCCAAGCUUCGGCGCCUGCGCCGAUGCAGGUGUAGCGACUAGACGGCACCCACCUAAGGCCAACGAUAUGGUGAAGGCAUAGUCCAGGGAGGGGCGAAAGUCACACAAACCGG, the reverse-splicing fitness is 0.00581.
Regarding GUGCCUUGCGCCGGGAAACCACGCAAGGGAUGGUGUCAAAUUCGGCGAAACCUAAGCGCCCGCCCGGGCGUAUGGCAACGCUGAGCCAAGCUUCGGCGCCUGCGCCGAUGAAGGUGUAGCGACUAGACGGCACCCACCUAAGGCCAACGCUAUGGUGAAGGCAUAGUCGAGGGAGGGGCGAAAGUCACACAAACCGG, the reverse-splicing fitness was 0.00341.
Consider GUGCCUUGCGCCGGGAAACCACGCAAGGGAUGGUGUCAAAUUCGGCGAAACCUAAGCGCCCGCCCGGGCGUAUGGCAACGCCGAGCCAAGCUUCGGCGCCUGCGCCGAUGUAGGUGUAGAGACUAGACGGCACCCACCUAAGGCAAACGUUAUGGUGAAGGCAUAGUCGAGGGAGUGGCGAAAGUCACACAAACCGG, for which the reverse-splicing fitness came out at 0.0372.
The same measure for GUGCCUUGCGCCGGGAAACCACGCAAGGGAUGGUGUCAAAUUCGGCGAAACCUAAGCGCCCGCCCGGGCGUAUGGCAACGCAGAGCCAAGCUUCGGCGCCUGCGCCGAUGUAGGUGUAGUGACUAGACGGCACCCACCUAAGGCAAACGAUAUGGUGAAGGCAUAGUCCAGGGAGGGGCGAAAGUCACACAAACCGG: 0.0037; for GUGCCUUGCGCCGGGAAACCACGCAAGGGAUGGUGUCAAAUUCGGCGAAACCUAAGCGCCCGCCCGGGCGUAUGGCAACGCUGAGCCAAGCUUCGGCGCCUGCGCCGAUGAAGGUGUAGCGACUAGACGGCACCCACCUAAGGCUAACGAUAUGGUGAAGGCAUAGUCCAGGGAGAGGCGAAAGUCACACAAACCGG: 0.0114.
As to GUGCCUUGCGCCGGGAAACCACGCAAGGGAUGGUGUCAAAUUCGGCGAAACCUAAGCGCCCGCCCGGGCGUAUGGCAACGCAGAGCCAAGCUUCGGCGCCUGCGCCGAUGAAGGUGUAGUGACUAGACGGCACCCACCUAAGGCCAACGGUAUGGUGAAGGCAUAGUCUAGGGAGAGGCGAAAGUCACACAAACCGG, the reverse-splicing fitness was found to be 0.00283.

(Values after the RNAGym collection of RNA variant scans (doi:10.1093/molbev/msab373).)
